Target: Integrin β3 cytoplasmic tail peptide (human (from the printed UniProt ID))
Test: SPR

| Substance | Kd |
| --- | --- |
| Syk C-terminal SH2 domain with the IA segment (IA-C-SH2) (domain or fragment) | 25 µM |
| Syk N-terminal SH2 domain alone (N-SH2) (domain or fragment) | 130 µM |
| Syk N-terminal SH2 domain with the IA segment (N-SH2+IA) (domain or fragment) | 8 µM |
| Syk tandem SH2 (tSH2) fragment, amino acids 9-264 (from UniProt P43405 9-264) (domain or fragment) | 3 µM |

Reference: article doi:10.1101/524447
